Molecular target: Thrombin (human alpha-thrombin) (Homo sapiens, UniProt P00734;P00734 P00734:328-363,P00734:364-622)
Test: nanopore without motor protein; lower-current events with increasing thrombin concentration

B1: 29-mer thrombin-binding aptamer (TBA) with 30xT threading strand (ssDNA)
DNA: TTTTTTTTTTTTTTTTTTTTTTTTTTTTTTAGTCCGTGGTAGGGCAGGTTGGGGTGACT
binding result: binds
